Laboratory results taken from patent US7700573.

Target: KOC1 (RNA-immunoprecipitation from NSCLC cells) (Homo sapiens) (UniProt O00425)
Test: pulldown

Chain of KOC1 (RNA-immunoprecipitation from NSCLC cells) (Homo sapiens) (O00425 whole entry): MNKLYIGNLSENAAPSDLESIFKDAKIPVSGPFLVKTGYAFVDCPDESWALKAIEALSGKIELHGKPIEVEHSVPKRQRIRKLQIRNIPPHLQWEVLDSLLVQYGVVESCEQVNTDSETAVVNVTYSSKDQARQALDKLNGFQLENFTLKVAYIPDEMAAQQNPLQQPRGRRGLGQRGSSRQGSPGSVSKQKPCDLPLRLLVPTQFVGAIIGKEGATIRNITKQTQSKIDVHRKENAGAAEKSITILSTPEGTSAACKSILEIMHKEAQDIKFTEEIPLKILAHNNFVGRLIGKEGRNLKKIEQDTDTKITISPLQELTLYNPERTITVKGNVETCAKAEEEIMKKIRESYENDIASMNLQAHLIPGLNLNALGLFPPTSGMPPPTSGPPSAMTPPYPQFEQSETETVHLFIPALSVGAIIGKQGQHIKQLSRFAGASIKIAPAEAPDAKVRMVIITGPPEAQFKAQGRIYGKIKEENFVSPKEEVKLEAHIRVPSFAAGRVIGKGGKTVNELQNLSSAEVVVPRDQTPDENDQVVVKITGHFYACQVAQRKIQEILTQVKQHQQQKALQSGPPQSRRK

Substance: ACTB mRNA (BC053988)
- binding signal (fold IP/input, sum of five cell lines) (negative control): 0

Substance: CCT2 mRNA (AF026166)
- binding signal (fold IP/input, sum of five cell lines) (RNA-IP microarray, association in cell extract): 32.3

Substance: GL mRNA (AJ420489)
- binding signal (fold IP/input, sum of five cell lines) (RNA-IP microarray): 16

Substance: PKP4 mRNA (AI681111)
- binding signal (fold IP/input, sum of five cell lines) (RNA-IP microarray): 12.6

Substance: PSMB7 mRNA (BM837906)
- binding signal (fold IP/input, sum of five cell lines) (RNA-IP microarray): 16.5

Substance: SBP2 mRNA (AF380995)
- binding signal (fold IP/input, sum of five cell lines) (RNA-IP microarray): 24

Substance: SLC25A3 mRNA (NM_002635)
- binding signal (fold IP/input, sum of five cell lines) (RNA-IP microarray): 21.7

Substance: WINS1 mRNA (AA741459)
- binding signal (fold IP/input, sum of five cell lines) (RNA-IP microarray): 10.9
